Laboratory results taken from the supplement of paper PMC12042874.
± gives the uncertainty stated by the source.

experiment: amyloid nucleation score (Sup35N fusion, yeast selection) (log enrichment); library NNK1; higher = more nucleation; inactive = no reads after selection
In short: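 Output and input plasmid inserts were sequenced by Illumina after psi-negative yeast carrying Sup35N fused to peptides of 20 random codons had been induced 24 hours with 100 μM copper sulfate and grown 7 days at 30°C on medium lacking adenine and uracil. The nucleation score is the DiMSum log enrichment of output over input reads, centred on the mode score of non-aggregating sequences. Sequences with under 100 input reads were excluded.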

Substance | amyloid nucleation score
SIYRHDA | -0.053 ± 1.1
SRFMGTNN | 0.102 ± 0.84
HPLQMISCNKHIQLANMQFR | 0.795 ± 0.37
KTANGNCHENSQSDVFKSVS | 0.346 ± 0.31
SGTQKNRCTSLMQC | 0.709 ± 0.53
PFYLDSGADVTEPGHLGFYG | 0.158 ± 0.37
PYFLGGRA | -0.809 ± 2.1
FRMCCNYYICHLDGVILIG | 1.65 ± 0.26
EFYVLISV | -1.23 ± 1.9
VRVMILHLSDILYYLWYGTI | 5.22 ± 0.078
SLTFVPTLFTCMDLMHC | 7.415 ± 0.067
FSHGFMITICHWEMTKETDW | -0.476 ± 0.37
FKRFWLR | 0.166 ± 0.73
RMLDY | 0.318 ± 1.2
TIFGHVRGSYETKWMWAPWR | 2.98 ± 0.12
GSNVSSTM | 0.537 ± 0.51
WSTCLCGYCCVI | 1.31 ± 0.2
LLYSMDRQVLMSAISLLSIT | 0.903 ± 0.63
GFLLGFCYPPQVQLVHVLTR | inactive
VWACSPGDVAFMP | 0.762 ± 0.97
DRNLDEWGEASL | -0.145 ± 1.5
IVLRFIRILISINLSQEH | -1.14 ± 0.76

Substance | amyloid nucleation score
ARAGWRSYYRGHLCSESANE | 0.273 ± 0.65
GAYLLPLSIWNLGPSNGR | 0.132 ± 0.44
PKFCWAWSYALMGNKNLKSC | -0.715 ± 0.34
NCVRSCISMQVYCTPAVVMY | 5.483 ± 0.053
YFGKYLIWWFMSKLAV | -0.388 ± 0.29
SGSLGS | 0.386 ± 0.84
DSRPCGYSRITFVCKGCAPC | 0.53 ± 0.79
YYAHSGMWYAMSDQKGAVG | 0.552 ± 0.67
NISSNRCVNNVAPSDSSTYF | -0.091 ± 0.69
ADANCFRGWSRHHRTITQLR | 0.296 ± 0.64
DPNFITMACQIADECAYCCH | inactive
WHMVKSVSTNIV | -0.386 ± 0.58
FINNNVEDYFISL | 0.712 ± 0.41
GFGPS | -0.275 ± 0.38
SFIELMMASRLF | 0.367 ± 0.35
IILCNRPMSYLRYNGARFLA | 0.948 ± 0.36
VRRDQDRPFSTMRQGLRFGH | 0.248 ± 0.31
CGGFGMIFYL | 3.03 ± 0.11
IPVILSSSNYSDSKPGL | 0.964 ± 0.6
LVLVNSTWCTYPCGWMCEME | 0.488 ± 1.2
TGSLG | -0.214 ± 0.31
FQYTACIN | 1.08 ± 0.57

Substance | amyloid nucleation score
VCSLSVYRTCSRDLFNFIWV | 0.262 ± 0.41
VLVHKDSG | -0.852 ± 0.71
GEVFFLVRSSVVCWISLICA | -0.109 ± 0.39
FTWIVFANSSAYFRTLQWSC | 0.032 ± 0.28
FFWRHLESGMGFHKACSHGG | 0.005 ± 1.7
PATELLYNVCGGY | 0.044 ± 0.38
CHYFMNTLIV | inactive
RLHSS | -0.036 ± 0.32
SNIASNKKVIMINHFKGFSL | 3.58 ± 0.057
KCGGKRCWLSFCLDAD | 1.48 ± 0.33
QCMARVSQFFWFMLTWK | 0.748 ± 0.27
FFAFYDVHPLHLGDTTLGGW | 3.29 ± 0.14
VLSPKSNIGDMSLIFMNTAA | 0.54 ± 0.79
SSLGAIYGLINQRPA | 0.776 ± 1
FAKLYLKSISVLLMHTDWVF | 0.684 ± 0.62
YLALVSANNASKKAVVKSTE | -0.054 ± 0.72
GHRINAYVVVVHLGSSGGGW | 2.07 ± 0.29
VVVGDSPNGNEEDDWSSC | -2.03 ± 2.7
DGHFVALSVLVCTMRC | 1.01 ± 0.65
VHTMSLWCDISQLIVPVNRV | 1.1 ± 0.52
RHKYMWM | 1.46 ± 0.81
LERYVSMRFSWWDSSKKNTW | 4.18 ± 0.086

Substance | amyloid nucleation score
KLSNFKVHYCYLTSHLMLET | 0.053 ± 0.43
ILFCYLYFMLNNFT | 1.07 ± 0.14
MRNVTFTGLMLDSDWNVH | -0.338 ± 1.1
CYSVIRREQNLNILV | 1.71 ± 0.53
QYSRLESLLM | 0.483 ± 0.39
LTGASSNTSVLVNWGVASYC | 1.13 ± 0.62
RACGYYCKSLCPGCKTCLSR | 0.005 ± 1.7
SNKDLKSLTICRSTQHWTVL | 0.095 ± 0.27
SWSITPNKKFDKTVSFQYHD | inactive
VGTTLRFWGKLFNPVDKAIR | -0.619 ± 0.46
TTMILWQTQYDYLG | -0.247 ± 0.58
PGARSLLGSYYV | 0.058 ± 0.84
THFMYIVELERGRLFGCSVR | 0.115 ± 1
LSHTTVRIDMGAAWRSLYSM | 2.36 ± 0.13
GFHSQG | -0.172 ± 0.41
WLINTPTHWVFVDIVWYWSK | 0.051 ± 0.84
SAAYQALLTNSYFSLFDVSW | 0.823 ± 0.21
VISVNLGFFPSFVIRASVAS | 5.45 ± 0.079
VELQYDLYCFSSFADPLS | 1.29 ± 0.6
LGFAW | 0.003 ± 0.45
